pKd: −log10 of the molar value.
Columns and labels:
[1] = biological target: co-expressed CAP1-GFP/CAP2-GFP (human) (UniProt Q01518); assay: co-purification
[2] = biological target: human CAP1 with C-terminal GFP and Strep-tag II (human) (UniProt Q01518); assay: co-purification
[3] = biological target: human CAP2 with C-terminal GFP and Strep-tag II (human) (UniProt P40123); assay: co-purification
[4] = biological target: human INF2-nonCAAX full-length, untagged (human); assay: AUC
[5] = biological target: CAP in the brain inhibitory fraction (CAP1 and CAP2 of mouse brain) (mouse (endogenous in brain))
[6] = biological target: GFP-Strep-tagged human INF2-nonCAAX full-length, purified (human)
[7] = biological target: INF2-Cterm labeled with tetramethylrhodamine (human) (UniProt Q27J81); assay: fluorescence polarisation

Sequence of untagged CAP co-purifying with CAP-GFP (likely endogenous HEK293 CAP) (Q01518 whole entry): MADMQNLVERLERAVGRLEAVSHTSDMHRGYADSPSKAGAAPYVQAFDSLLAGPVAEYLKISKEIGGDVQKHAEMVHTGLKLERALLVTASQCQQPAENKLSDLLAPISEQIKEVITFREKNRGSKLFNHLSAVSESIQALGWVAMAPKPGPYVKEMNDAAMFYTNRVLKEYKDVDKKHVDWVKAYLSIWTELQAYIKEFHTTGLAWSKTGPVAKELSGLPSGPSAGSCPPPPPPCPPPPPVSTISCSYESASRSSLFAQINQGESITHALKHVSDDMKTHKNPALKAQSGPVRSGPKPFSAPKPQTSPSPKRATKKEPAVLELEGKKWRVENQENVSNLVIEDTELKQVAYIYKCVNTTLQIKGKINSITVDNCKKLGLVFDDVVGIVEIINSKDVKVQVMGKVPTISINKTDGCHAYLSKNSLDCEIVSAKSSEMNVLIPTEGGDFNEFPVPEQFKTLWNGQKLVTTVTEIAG
Sequence of human CAP2 with C-terminal GFP and Strep-tag II (human) (P40123 whole entry): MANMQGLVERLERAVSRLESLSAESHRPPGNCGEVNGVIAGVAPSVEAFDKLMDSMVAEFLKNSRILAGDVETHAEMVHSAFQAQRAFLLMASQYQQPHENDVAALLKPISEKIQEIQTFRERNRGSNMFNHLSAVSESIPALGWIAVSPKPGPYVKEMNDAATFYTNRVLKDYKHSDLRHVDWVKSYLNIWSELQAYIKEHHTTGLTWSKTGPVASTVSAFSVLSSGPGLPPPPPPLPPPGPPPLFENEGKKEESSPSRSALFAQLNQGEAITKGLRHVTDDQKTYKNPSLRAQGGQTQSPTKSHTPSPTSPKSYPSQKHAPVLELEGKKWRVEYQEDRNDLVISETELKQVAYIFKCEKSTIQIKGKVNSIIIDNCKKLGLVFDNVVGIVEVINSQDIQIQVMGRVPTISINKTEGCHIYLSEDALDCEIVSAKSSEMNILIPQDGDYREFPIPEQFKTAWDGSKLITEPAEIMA
Sequence of co-expressed CAP1-GFP/CAP2-GFP (human) (Q01518 whole entry, chain 1 of 2): as the sequence (Q01518 whole entry) above
Sequence of co-expressed CAP1-GFP/CAP2-GFP (human) (P40123 whole entry, chain 2 of 2, further chain): as the sequence (P40123 whole entry) above
Sequence of human CAP1 with C-terminal GFP and Strep-tag II (human) (Q01518 whole entry): as the sequence (Q01518 whole entry) above

A mole percentage compared to CAP-GFP [1] of 90.5%, a mole percentage compared to CAP-GFP [2] of 82.5% and a mole percentage compared to CAP-GFP [3] of 88.1% were found for “actin of HEK293 cells co-purifying with recombinant CAP (from UniProt P60709 1-375) (natural protein)” in this work.
A stoichiometry N [4] of 2 was found for “human INF2-nonCAAX full-length, untagged (natural protein)” in this work.
A mole percentage compared to CAP [5] of 107% was found for “mouse brain actin (from UniProt P60710 1-375) (natural protein)” in this work.
An IC50 of inhibition of INF2-mediated actin polymerization, pyrene-actin assay [6] of 0.263 µM and a pKd [7] of 5.74 were found for “untagged CAP2/actin complex purified from tubastatin A-treated 293 cells (from UniProt P40123;P60709)” in this work.
A mole percentage compared to CAP-GFP [1] of 16.5%, a mole percentage compared to CAP-GFP [2] of 16.8% and a mole percentage compared to CAP-GFP [3] of 16.3% were found for “untagged CAP co-purifying with CAP-GFP (likely endogenous HEK293 CAP) (from UniProt Q01518 1-475) (natural protein)” in this work.
